Three molecules from publication PMC3940207 (Molecular cell, 2014) can be followed below.

The term Kd denotes a measure of binding affinity in units of concentration. Read a high Kd as lower affinity. In general, stoichiometry N refers to the number of molecules, sites or subunits per partner or assembly.

Assay [1] concerns the target single chain H2B_(36-130) and H2A.Z_(22-118) chimera. The assay can be described thus: ITC. (ITC needs no label: the signal is the heat of the interaction.)
Assay [2] shares this target. The assay can be described thus: AUC.
The target of another assay is T1, Swr1_(504-650) (S. cerevisiae, UniProt Q05471 505-651).
T1 sequence (looked up): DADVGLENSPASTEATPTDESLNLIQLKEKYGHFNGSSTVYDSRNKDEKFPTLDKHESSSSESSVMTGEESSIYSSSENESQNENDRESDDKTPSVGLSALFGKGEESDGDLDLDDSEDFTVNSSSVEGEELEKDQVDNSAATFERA
Briefly: ITC.

On to “Swr1_(504-650) (from UniProt Q05471 505-651) (domain or fragment)”, for which, in assay [1], the Kd worked out at 7 nM.

On to “Swr1_(589-650) (from UniProt Q05471 590-651) (domain or fragment)”, for which the stoichiometry N in assay [2] worked out at 1.

B1: scH2B-H2A (other)
chain: MRKETYSSYIYKVLKQTHPDTGISQKSMSILNSFVNDIFERIATEASKLAAYNKKSTISAREIQTAVRLILPGELAKHAVSEGTRAVTKYSSSTQAQSRSAKAGLTFPVGRVHRLLRRGNYAQRIGSGAPVYLTAVLEYLAAEILELAGNAARDNKKTRIIPRHLQLAIRNDDELNKLLGNVTIAQGGVLPNI
In the case of B1, the dissociation constant (Kd) with Swr1_(504-650) is roughly 151 nM.
